One assay addresses T1, human CD9 (human, UniProt P21926 2-228).
T1 construct: The cells expressing full-length CD9 that were used to select the antibodies are not described; In the functional assays CD9 stands on human PBMC; also called full-length cell-expressed CD9; Tetraspanin-29
T1 sequence: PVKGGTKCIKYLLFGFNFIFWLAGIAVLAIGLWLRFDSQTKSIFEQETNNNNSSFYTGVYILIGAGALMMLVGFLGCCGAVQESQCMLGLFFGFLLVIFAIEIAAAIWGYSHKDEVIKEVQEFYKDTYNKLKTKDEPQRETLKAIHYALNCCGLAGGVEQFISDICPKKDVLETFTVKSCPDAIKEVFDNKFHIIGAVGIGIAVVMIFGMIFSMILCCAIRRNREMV
The experiment in a line: selection on cells expressing full-length CD9; method not described.

The target in assay [1] is T2, recombinant human CD9 long extracellular loop 2-human Fc fusion protein (10015-CD, R&D Systems) (human, UniProt P21926 112-195).
T2 construct: Bought reagent; also called CD9-loop2; long extracellular loop 2 peptide; not shown: human Fc
T2 sequence: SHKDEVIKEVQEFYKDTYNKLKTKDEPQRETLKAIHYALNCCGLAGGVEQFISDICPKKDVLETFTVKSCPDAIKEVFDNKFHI
The experiment in a line: biolayer interferometry (Octet RED384), CD9 loop 2-human Fc captured on AHC biosensors, Fab at 10 µg/mL. The source says:
CD9 contains two extracellular loops: a short extracellular loop (loop 1: 34-55 in SEQ ID NO:2) and a long extracellular loop (loop 2: 112-195 in SEQ ID NO:2). We used biolayer interferometry to assess binding of our panel of CD9 Fab-Y antibodies (selected for their ability to bind full-length cell-expressed CD9) to the long extracellular loop 2 peptide, using the Octet® RED384 System (ForteBio) with Anti-hlgG Fc Capture (AHC) Biosensors (ForteBio) at room temperature. Firstly, an array of 8 sensors was dipped in kinetics buffer (PBS 0.1%, BSA 0.02%, Tween 20) for 120 seconds to provide a baseline signal. Sensors were then moved to wells containing 200 μl of recombinant human CD9 long extracellular loop 2-human Fc fusion protein (10015-CD, R&D Systems®) at 2 μg/mL in kinetics buffer to immobilize the protein to the biosensor (100 seconds), followed by a second baseline step (180 seconds) in kinetics buffer to equilibrate the biosensors now coated with the CD9 long extracellular loop 2-human Fc fusion protein. No detachment of the peptide was observed during this step. Sensors were then dipped in wells containing one of the anti-CD9 Fab (10 μg/mL) to evaluate association of each antibody to CD9-loop2 (120 seconds), followed by dissociation in kinetics buffer (600 seconds). Anti-CD137 Fab-Y (11175) was used as negative control during the antibody association step. […]

B1: anti-CD9 Fab-Y antibody 7272 (Fab, V domains shown)
VH: QSLEESGGRLVTPGTPLTLTCTVSGFSLSSYAMGWVRQAPGKGLEWIGAIGSITATGYARWAKGRFSISKTSTTVDLKMTSPTTEDTATYFCAREIYVGSAYAFDIWGPGTLVTVSS
VL: AYDMTQTPASVEVAVGDTVTIKCQASQSISNYLAWYQQKPGQPPKLLIYLASTLASGVPSRFKGSGSGTEFTLTISDLECADAATYYCQQGYIDNVNKGFGGGTEVVVK
notes: also called VR7272
As for B1, the binding result (with human CD9; in assay [1]) was “binds” each time.

The values above are taken from patent publication US20230192900A1 (published 2023).
